For orientation: stoichiometry N means the number of molecules, sites or subunits per partner or assembly.

This series concerns the molecule itself. Nature of the series: atomic force microscopy.

B1: BRCA1 281-701aa (domain or fragment, human, UniProt P38398 281-701, looked up)
chain: SSLQHENSSLLLTKDRMNVEKAEFCNKSKQPGLARSQHNRWAGSKETCNDRRTPSTEKKVDLNADPLCERKEWNKQKLPCSENPRDTEDVPWITLNSSIQKVNEWFSRSDELLGSDDSHDGESESNAKVADVLDVLNEVDEYSGSSEKIDLLASDPHEALICKSERVHSKSVESNIEDKIFGKTYRKKASLPNLSHVTENLIIGAFVTEPQIIQERPLTNKLKRKRRPTSGLHPEDFIKKADLAVQKTPEMINQGTNQTEQNGQVMNITNSGHENKTKGDSIQNEKNPNPIESLEKESAFKTKAEPISSSISNMELELNIHNSKAPKKNRLRRKSSTRHIHALELVVSRNLSPPNCTELQIDSCSSSEEIKKKKYNQMPVRHSRNLQLMEGKEPATGAKKSNKPNEQTSKRHDSDTFPELK
On to B1, for which the binding result is recorded as “binds”.

B2: BRCA1 fragment 421-988aa (domain or fragment, human, UniProt P38398 421-988, looked up)
chain: EYSGSSEKIDLLASDPHEALICKSERVHSKSVESNIEDKIFGKTYRKKASLPNLSHVTENLIIGAFVTEPQIIQERPLTNKLKRKRRPTSGLHPEDFIKKADLAVQKTPEMINQGTNQTEQNGQVMNITNSGHENKTKGDSIQNEKNPNPIESLEKESAFKTKAEPISSSISNMELELNIHNSKAPKKNRLRRKSSTRHIHALELVVSRNLSPPNCTELQIDSCSSSEEIKKKKYNQMPVRHSRNLQLMEGKEPATGAKKSNKPNEQTSKRHDSDTFPELKLTNAPGSFTKCSNTSELKEFVNPSLPREEKEEKLETVKVSNNAEDPKDLMLSGERVLQTERSVESSSISLVPGTDYGTQESISLLEVSTLGKAKTEPNKCVSQCAAFENPKGLIHGCSKDNRNDTEGFKYPLGHEVNHSRETSIEMEESELDAQYLQNTFKVSKRQSFAPFSNPGNAEEECATFSAHSGSLKKQSPKVTFECEQKEENQGKNESNIKPVQTVNITAGFPVVGQKDKPVDNAKCSIKGGSRFCLSSQFRGNETGLITPNKHGLLQNPYRIPPLFPIKS
As for B2, the “stoichiometry N” value was determined as 2.

These data come from PMC4737671 (International Journal of Biological Sciences, 2016).
